Some results are limits rather than exact numbers.

The target in test [1] is T1, human LAG3 expressed on HEK293 cells (human, UniProt P18627 23-525).
T1 construct: also called hLAG3; HEK293/hLAG3
T1 sequence: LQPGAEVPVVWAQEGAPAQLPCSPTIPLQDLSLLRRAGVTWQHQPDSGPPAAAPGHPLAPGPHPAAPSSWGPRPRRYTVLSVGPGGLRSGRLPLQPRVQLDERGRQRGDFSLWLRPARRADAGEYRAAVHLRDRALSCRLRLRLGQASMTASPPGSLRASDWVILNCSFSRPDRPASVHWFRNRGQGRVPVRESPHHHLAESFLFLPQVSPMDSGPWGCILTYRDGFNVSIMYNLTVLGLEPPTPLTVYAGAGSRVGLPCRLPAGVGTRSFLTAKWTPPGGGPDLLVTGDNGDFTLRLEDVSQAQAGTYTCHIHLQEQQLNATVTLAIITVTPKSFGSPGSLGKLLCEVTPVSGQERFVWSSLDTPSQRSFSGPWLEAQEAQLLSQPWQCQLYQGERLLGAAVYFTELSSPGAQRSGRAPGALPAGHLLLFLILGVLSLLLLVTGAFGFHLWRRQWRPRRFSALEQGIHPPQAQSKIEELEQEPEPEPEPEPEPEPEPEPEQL
The experiment in a line: flow cytometry, HEK293/hLAG3 cells. The method, then: The serially diluted antibodies were added to the cell suspension and incubated for 15-30 minutes on ice. The cells were centrifuged and pellets were washed with staining buffer to remove unbound antibodies. […] The cells were centrifuged and pellets were washed with staining buffer to remove unbound secondary F(ab′)2 and fixed overnight with a 1:1 dilution of Cytofix (BD Biosciences, #554655) and staining buffer. Following day, fixed cells were centrifuged and pellets were washed with staining buffer, resuspended and filtered. Fluorescence measurements were acquired on HyperCyt® cytometer and analyzed in ForeCyt™ (IntelliCyt; Albuquerque, N. Mex.) to determine the mean fluorescence intensities (MFI). The EC₅₀ values were calculated from a four-parameter logistic equation over an 11-point response curve using GraphPad Prism. EC₅₀ was defined as the concentration of antibody at which 50% of maximal binding signal is detected. The MFI ratio for each antibody was calculated by dividing the MFI at 100 nM by MFI at 0 nM of antibody concentration.
(In flow cytometry, cells or beads pass a laser one at a time.)

Test [2] addresses T2, recombinant human LAG3 expressed with a C-terminal mouse IgG2a mFc tag (human).
T2 construct: Called dimeric; also called hLAG3-mFc; hLAG3 dimer
T2 chain: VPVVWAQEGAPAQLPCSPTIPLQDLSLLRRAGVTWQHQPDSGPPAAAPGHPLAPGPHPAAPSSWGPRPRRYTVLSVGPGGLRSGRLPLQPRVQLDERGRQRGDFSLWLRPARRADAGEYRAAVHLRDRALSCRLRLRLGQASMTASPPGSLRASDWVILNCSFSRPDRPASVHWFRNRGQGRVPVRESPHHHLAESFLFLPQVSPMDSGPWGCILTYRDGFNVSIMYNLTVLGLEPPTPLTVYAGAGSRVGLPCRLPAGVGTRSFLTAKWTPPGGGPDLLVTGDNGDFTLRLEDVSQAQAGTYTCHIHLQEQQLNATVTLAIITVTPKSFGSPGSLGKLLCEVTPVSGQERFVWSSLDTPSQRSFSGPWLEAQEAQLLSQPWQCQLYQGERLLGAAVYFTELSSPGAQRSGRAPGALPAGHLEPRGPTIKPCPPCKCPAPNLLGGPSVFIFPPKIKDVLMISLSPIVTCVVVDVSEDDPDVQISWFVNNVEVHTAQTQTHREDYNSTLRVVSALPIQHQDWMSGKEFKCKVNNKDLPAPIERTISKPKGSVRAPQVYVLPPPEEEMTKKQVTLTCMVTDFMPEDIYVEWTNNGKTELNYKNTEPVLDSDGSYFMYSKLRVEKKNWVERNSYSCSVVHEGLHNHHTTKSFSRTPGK
Kind of test: SPR, mAb captured, 37 C. The method, then:
(§1) The BiaCore sensor surface was derivatized with either a polyclonal rabbit anti-mouse antibody (GE, # BR-1008-38) or with a monoclonal mouse anti-human Fc antibody (GE, # BR-1008-39) to capture approximately 50-85 RUs of anti-LAG3 monoclonal antibodies, expressed with either a mouse Fc or a human Fc, respectively. […] The binding of the LAG3 reagents to captured monoclonal antibodies was monitored for 4 minutes while their dissociation from the antibodies was monitored for 8 minutes in HBST running buffer (0.01 M HEPES pH 7.4, 0.15 M NaCl, 3 mM EDTA, 0.05% v/v Surfactant P20). Experiments were performed at 25° C. and 37° C. Kinetic association (kₐ) and dissociation (kd) rate constants were determined by processing and fitting the data to a 1:1 binding model using Scrubber 2.0c curve fitting software. Binding dissociation equilibrium constants (KD) and dissociative half-lives (t_{1/2}) were then calculated from the kinetic rate constants as: KD (M)=kd/kₐ and t_{1/2} (min)=[ln2/(60*kd)].

For test [3], the target named is T3, recombinant human LAG3 expressed with a C-terminal myc-myc-hexahistidine tag (human, UniProt P18627 29-450).
T3 construct: also called hLAG3-mmh; hLAG3.mmh
The experiment in a line: SPR, mAb captured, 37 C. The method, then:
as §1

Test [4] has as its target T1, human LAG3 expressed on HEK293 cells. The experiment in a line: cell adherence assay, blocks A20 (mouse MHCII) cells on HEK293-hLAG3. As to the method: Cells were plated into sterile Nunclon™ Delta 96-Well MicroWell™ Black Optical Bottom Plates (Thermo Scientific). The wells from the perimeter of the plate were not included in the assay design to avoid edge effects.
On the day of treatment, all antibodies were serially (1:3) diluted in RPMI media (without FBS or supplements added). The 9-point dilution ranged between 45 pM to 300 nM, with the last dilution point containing no mAb. […] While the plated HEK293-LAG3 cells were incubating with the test or control antibodies, non-adherent B-cells (RAJI or A20) were labeled with Calcein AM using the following procedure. RAJI and A20 suspension cells were harvested and centrifuged at 1,200 rpm for 5 minutes. Cell pellets were resuspended in 1×PBS and counted. Cells were washed with RPMI, and resuspended in RPMI at a concentration of 10⁶ cells per 1 ml. Cells were labeled by adding 5 μL of Calcein AM per 1 ml of cell suspension and incubated for 30 min at 37° C., at 5% CO₂. […] Subsequently, 10 μL of BD Pharmingen Fc Block (0.5 mg/mL) was added per 1 ml of the Calcein AM labeled cells, which were incubated at RT for 10 minutes. The Calcein AM-stained, Fc-blocked RAJI or A20 cells were resuspended in RPMI to a final concentration of 3×10⁶ cells per 1 ml and subsequently used in the adherence assay.
The labeled suspension cells were incubated with the HEK293 monolayer for 1 hour at 37° C., at 5% CO₂.

B1: H4H15462P (antibody, human IgG4, V domains shown)
VH: QVQLVQSGAEVKKPGASVKVSCKASGYTFTNYYIHWVRQAPGQGLDWMGIINPGGGNTNYAQKFLGRVTMTRDTSTTTVYMELSSLRSEDTAIYYCARENWNSYFDNWGQGTLVTVSS
VL: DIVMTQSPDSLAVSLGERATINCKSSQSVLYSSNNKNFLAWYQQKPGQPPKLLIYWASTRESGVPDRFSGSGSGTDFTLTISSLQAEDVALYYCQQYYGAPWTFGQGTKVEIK
notes: H4H = human IgG4 Fc with S108P hinge mutation
Usually EC50 stands for the concentration giving half of the maximal effect. The Kd is the concentration at which binding is half-saturated. The term koff denotes a measure of how fast the partners let go of each other. One may read the kon as the rate constant with which the complex forms. Broadly, the IC50 is the point on the concentration scale where inhibition reaches its midpoint. A high value points to weaker potency. Consider B1, for which, in test [1], the EC50 was 0.3 nM and the “Ratio of MFI (100 nM/0 nM)” value worked out at 62.6. Further, in test [2], the Kd turned out to be 0.415 nM, the koff was determined as 0.000895 s⁻¹, the kon is 2.16e+06 M⁻¹ s⁻¹ and the t1/2 amounted to 12.9 min. Moreover, in test [3], the Kd was 5.8 nM, the koff stood at 0.00626 s⁻¹, the kon was 1.08e+06 M⁻¹ s⁻¹ and the t1/2 stood at 1.8 min. For the same molecule, in test [4], the IC50 was found to be 7.1 nM.

B2: H4H17828P2 (antibody, human IgG4, V domains shown)
VH: EVQLVESGGGLVQPGGSLRLSCAASGFTFKTYAMSWVRQAPGRGLEWVSGISGSGSTSYYADSVKGRFTISRDNYKKTLSLQMNSLRAEDTAVYYCALDIMATVGGLFNNWGQGTLVTVSS
VL: not shown
notes: as for B1
In the case of B2, in test [1], the EC50 turned out to be 2.65 nM and the “Ratio of MFI (100 nM/0 nM)” value was determined as 355. Further, in test [2], the Kd came to 0.415 nM, the koff turned out to be 0.000718 s⁻¹, the kon was found to be 1.73e+06 M⁻¹ s⁻¹ and the t1/2 was determined as 16.1 min. In test [3], the Kd came to 1.89 nM, the koff is 0.00207 s⁻¹, the kon stood at 1.1e+06 M⁻¹ s⁻¹ and the t1/2 is 5.6 min. Further, in test [4], the IC50 was 16 nM.

B3: H4sH15479P (antibody, V domains shown)
VH: QVQLQQWGAGLLNPSETLSLTCAVYGGAFSDYYWNWIRQPPGKGLEWIGEINHRGSTNYNPSLKSRVTISVDTSKNQFSLRMSSVTAADAAVYYCARGEDYDIWNGYYQEKWGQGTLVTVSS
VL: EIVLTQSPATLSLSPGERATLSCRASQSISTYLAWYQQKPGQAPRLLIYDASKRATGIPARFSGSGSGTDFTLTISSLEPEDFVVYYCHQRSNWPLTFGGGTKVEIK
B3: in test [1], a half-maximal response (EC50) required 0.903 nM and the “Ratio of MFI (100 nM/0 nM)” value was determined as 199. Further, in test [2], the Kd worked out at 0.00342 nM, the koff came out at 1e-05 s⁻¹, the kon was found to be 2.92e+06 M⁻¹ s⁻¹ and the t1/2 is not below 1160 min. Also, in test [3], the Kd was found to be 0.0341 nM, the koff was 4.24e-05 s⁻¹, the kon came out at 1.24e+06 M⁻¹ s⁻¹ and the t1/2 is 272 min. For the same molecule, in test [4], the IC50 was 6.3 nM.

For the origin of these results see US20170101472A1 (Regeneron, published 2017).
